According to patent US20250136695A1:
Blank lines part the entries; values can stand above or below the substance they belong to.

Assays:
[1] = molecular target: PDL1 expressed on recombinant CHO cells (CHO-K1/PDL1; aAPC CHO-PDL1) (UniProt Q9NZQ7)
[2] = molecular target: PDL1 (Fc-cut) antigen (UniProt Q9NZQ7); assay: ELISA on coated PDL1 (Fc-cut), IgG (H+L) secondary antibody; PBS blank 0.121 / 0.102
[3] = molecular target: PDL1 (Fc-cut) antigen (UniProt Q9NZQ7); assay: ELISA on coated PDL1 (Fc-cut), VHH secondary antibody; PBS blank 0.181 / 0.212

PDL1 (Fc-cut) antigen, sequence (Q9NZQ7 19-238 limits assumed): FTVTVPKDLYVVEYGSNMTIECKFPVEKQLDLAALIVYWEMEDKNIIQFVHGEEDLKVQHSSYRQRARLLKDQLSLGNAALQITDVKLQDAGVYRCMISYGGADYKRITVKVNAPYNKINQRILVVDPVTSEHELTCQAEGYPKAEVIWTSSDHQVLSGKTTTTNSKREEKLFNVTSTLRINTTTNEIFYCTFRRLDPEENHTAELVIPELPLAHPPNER
PDL1 expressed on recombinant CHO cells (CHO-K1/PDL1; aAPC CHO-PDL1), sequence (Q9NZQ7 19-290 limits assumed): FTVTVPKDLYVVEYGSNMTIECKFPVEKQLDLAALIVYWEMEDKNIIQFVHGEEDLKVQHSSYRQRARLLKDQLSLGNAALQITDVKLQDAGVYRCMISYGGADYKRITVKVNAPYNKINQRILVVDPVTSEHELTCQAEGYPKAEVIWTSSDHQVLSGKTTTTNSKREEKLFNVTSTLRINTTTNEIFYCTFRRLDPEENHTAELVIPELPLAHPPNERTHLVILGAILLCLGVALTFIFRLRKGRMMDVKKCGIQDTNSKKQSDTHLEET

EC50 of the PD1/PDL1 Block Assay (luciferase fold of induction, Jurkat-PD-1-NFAT-Luc + aAPC CHO-PDL1) [1]: 6.04 µg/mL
Substance: Atezolizumab (antibody)

OD450, serum 1:1K, well 1 of 2 [2]: 0.189
OD450, serum 1:1K, well 2 of 2 [2]: 0.176
OD450, serum 1:2K, well 1 of 2 [2]: 0.145
OD450, serum 1:2K, well 2 of 2 [2]: 0.159
OD450, serum 1:4K, well 1 of 2 [2]: 0.124
OD450, serum 1:4K, well 2 of 2 [2]: 0.12
OD450, serum 1:8K, well 1 of 2 [2]: 0.107
OD450, serum 1:8K, well 2 of 2 [2]: 0.116
OD450, serum 1:16K, well 1 of 2 [2]: 0.118
OD450, serum 1:16K, well 2 of 2 [2]: 0.12
OD450, serum 1:32K, well 1 of 2 [2]: 0.125
OD450, serum 1:32K, well 2 of 2 [2]: 0.118
OD450, serum 1:64K, well 1 of 2 [2]: 0.141
OD450, serum 1:64K, well 2 of 2 [2]: 0.115
OD450, serum 1:1K, well 1 of 2 [3]: 0.176
OD450, serum 1:1K, well 2 of 2 [3]: 0.166
OD450, serum 1:2K, well 1 of 2 [3]: 0.194
OD450, serum 1:2K, well 2 of 2 [3]: 0.213
OD450, serum 1:4K, well 1 of 2 [3]: 0.207
OD450, serum 1:4K, well 2 of 2 [3]: 0.236
OD450, serum 1:8K, well 1 of 2 [3]: 0.205
OD450, serum 1:8K, well 2 of 2 [3]: 0.236
OD450, serum 1:16K, well 1 of 2 [3]: 0.232
OD450, serum 1:16K, well 2 of 2 [3]: 0.249
OD450, serum 1:32K, well 1 of 2 [3]: 0.224
OD450, serum 1:32K, well 2 of 2 [3]: 0.253
OD450, serum 1:64K, well 1 of 2 [3]: 0.201
OD450, serum 1:64K, well 2 of 2 [3]: 0.224
Substance: Unimmunized serum
